Among the data in PMC6509359 are stoichiometry N values, retold here.

The target of assay [1] is Chimera: Human USP28 (149-[Insert of Human USP25]-703) (human). As to the kind of experiment: SEC-MALS; 100 μL of 1-2 mg/mL protein on Superdex 200 10/300, 0.5 mL/min, PBS + 2 mM DTT.
The target of assay [2] is D. rerio USP28 (1-738,763-1187) (zebrafish (Danio rerio)). As to the kind of experiment: not stated; oligomeric states of purified orthologs and of full-length proteins, Figures S7A, S7B and S3J.
Assay [3] addresses G. gallus USP25 (174-726)∼Ub-PA (chicken (Gallus gallus) | not stated). The description is as above.
Assay [4] has as its target Chimera: Human USP25 (157-[Insert of Human USP28]-714) (human). As to the kind of experiment: SEC-MALS; 100 μL of 1-2 mg/mL protein on Superdex 200 10/300, 0.5 mL/min, PBS + 2 mM DTT. (SEC sorts molecules by how far they enter the pores of the column.)
Assay [5] deals with Chimera: Huma USP25 (157-[AIM of D. rerio USP28]-714) (human | zebrafish (Danio rerio)). The description is as above.
Assay [6] addresses G. gallus USP25 (174-726) (chicken (Gallus gallus)). The assay is described as follows: not stated; oligomeric states of purified orthologs and of full-length proteins, Figures S7A, S7B and S3J.
In assay [7] the target is D. rerio USP28 (138-684) (zebrafish (Danio rerio)). The description is as above.

Usually stoichiometry N stands for the number of molecules, sites or subunits per partner or assembly. On to “Chimera: Human USP28 (149-[Insert of Human USP25]-703) (domain or fragment)”, for which, in assay [1], the stoichiometry N was determined as 2.
Substance “D. rerio USP28 (1-738,763-1187) (enzyme)” returned a stoichiometry N in assay [2] of 2.
In assay [3], “G. gallus USP25 (174-726)∼Ub-PA (from UniProt P0CG48 1-75) (complex)” registered a stoichiometry N of 2.
“Chimera: Human USP25 (157-[Insert of Human USP28]-714) (domain or fragment)”: the stoichiometry N in assay [4] turned out to be 2.
Regarding “Chimera: Huma USP25 (157-[AIM of D. rerio USP28]-714) (domain or fragment)”, the stoichiometry N in assay [5] was determined as 2.
Regarding “G. gallus USP25 (174-726) (domain or fragment)”, the stoichiometry N in assay [6] came to 4.
Turning to “D. rerio USP28 (138-684) (domain or fragment)”, the stoichiometry N in assay [7] amounted to 2.
